# Assay results as given in PMC3112237 (Journal of virology, 2011).
# Target: the molecule itself
# Assay: SDS-PAGE of unboiled samples with Western blot
row,Protein,stoichiometry N
1,recombinant Ad3 fiber knob S2/Kn (two shaft motifs and the knob domain) (domain or fragment) NKLCSKLGNGLTFDSSNSIALKNNTLWTGPKPEANCIIEYGKQNPDSKLTLILVKNGGIVNGYVTLMGASDYVNTLFKNKNVSINVELYFDATGHILPDSSSLKTDLELKYKQTADFSARGFMPSTTAYPFVLPNAGTHNENYIFGQCYYKASDGALFPLEVTVMLNKRLPDSRTSYVMTFLWSLNAGLAPETTQATLITSPFTFSYIREDD,3
2,recombinant Ad3 fiber knob S3/Kn (three shaft motifs and the knob domain) (domain or fragment) HSINLPIGNGLQIEQNKLCSKLGNGLTFDSSNSIALKNNTLWTGPKPEANCIIEYGKQNPDSKLTLILVKNGGIVNGYVTLMGASDYVNTLFKNKNVSINVELYFDATGHILPDSSSLKTDLELKYKQTADFSARGFMPSTTAYPFVLPNAGTHNENYIFGQCYYKASDGALFPLEVTVMLNKRLPDSRTSYVMTFLWSLNAGLAPETTQATLITSPFTFSYIREDD,3
3,recombinant Ad3 fiber knob S/Kn (one shaft motif and the knob domain) (domain or fragment) NSIALKNNTLWTGPKPEANCIIEYGKQNPDSKLTLILVKNGGIVNGYVTLMGASDYVNTLFKNKNVSINVELYFDATGHILPDSSSLKTDLELKYKQTADFSARGFMPSTTAYPFVLPNAGTHNENYIFGQCYYKASDGALFPLEVTVMLNKRLPDSRTSYVMTFLWSLNAGLAPETTQATLITSPFTFSYIREDD,3
4,recombinant Ad3 fiber knob S4/Kn (four shaft motifs and the knob domain) (domain or fragment) LEENIKVNTPLTKSNHSINLPIGNGLQIEQNKLCSKLGNGLTFDSSNSIALKNNTLWTGPKPEANCIIEYGKQNPDSKLTLILVKNGGIVNGYVTLMGASDYVNTLFKNKNVSINVELYFDATGHILPDSSSLKTDLELKYKQTADFSARGFMPSTTAYPFVLPNAGTHNENYIFGQCYYKASDGALFPLEVTVMLNKRLPDSRTSYVMTFLWSLNAGLAPETTQATLITSPFTFSYIREDD,3
5,recombinant Ad3 fiber knob S6/Kn (six shaft motifs and the knob domain) (domain or fragment) GVLSLKCVNPLTTASGSLQLKVGSGLTVDTTDGSLEENIKVNTPLTKSNHSINLPIGNGLQIEQNKLCSKLGNGLTFDSSNSIALKNNTLWTGPKPEANCIIEYGKQNPDSKLTLILVKNGGIVNGYVTLMGASDYVNTLFKNKNVSINVELYFDATGHILPDSSSLKTDLELKYKQTADFSARGFMPSTTAYPFVLPNAGTHNENYIFGQCYYKASDGALFPLEVTVMLNKRLPDSRTSYVMTFLWSLNAGLAPETTQATLITSPFTFSYIREDD,3
6,recombinant Ad3 fiber knob S5/Kn (five shaft motifs and the knob domain) (domain or fragment) GSLQLKVGSGLTVDTTDGSLEENIKVNTPLTKSNHSINLPIGNGLQIEQNKLCSKLGNGLTFDSSNSIALKNNTLWTGPKPEANCIIEYGKQNPDSKLTLILVKNGGIVNGYVTLMGASDYVNTLFKNKNVSINVELYFDATGHILPDSSSLKTDLELKYKQTADFSARGFMPSTTAYPFVLPNAGTHNENYIFGQCYYKASDGALFPLEVTVMLNKRLPDSRTSYVMTFLWSLNAGLAPETTQATLITSPFTFSYIREDD,3

# Target: the molecule itself
# Assay: SDS-PAGE of unboiled samples, Coomassie stain
row,Protein,stoichiometry N
1,"Ad3-K/S/Kn (His tag, K-coil dimerization domain, flexible linker, one shaft motif, Ad3 fiber knob) (designed binder, biotinylated (sites not given) only where it was immobilised on streptavidin (Fig. 5A)) KVSALKEKVSALKEKVSALKEKVSALKEKVSALKEGSGGGSGGGSGGGSNSIALKNNTLWTGPKPEANCIIEYGKQNPDSKLTLILVKNGGIVNGYVTLMGASDYVNTLFKNKNVSINVELYFDATGHILPDSSSLKTDLELKYKQTADFSARGFMPSTTAYPFVLPNAGTHNENYIFGQCYYKASDGALFPLEVTVMLNKRLPDSRTSYVMTFLWSLNAGLAPETTQATLITSPFTFSYIREDD",3
2,"Ad3-E/S/Kn (His tag, E-coil dimerization domain, flexible linker, one shaft motif, Ad3 fiber knob) (designed binder) EVSALEKEVSALEKEVSALEKEVSALEKEVSALEKGSGGGSGGGSGGGSNSIALKNNTLWTGPKPEANCIIEYGKQNPDSKLTLILVKNGGIVNGYVTLMGASDYVNTLFKNKNVSINVELYFDATGHILPDSSSLKTDLELKYKQTADFSARGFMPSTTAYPFVLPNAGTHNENYIFGQCYYKASDGALFPLEVTVMLNKRLPDSRTSYVMTFLWSLNAGLAPETTQATLITSPFTFSYIREDD",3
